Patent US20190022222A1, “NEUTRON CAPTURE THERAPY SYSTEM FOR ELIMINATING AMYLOID Beta-PROTEIN DEPOSITION PLAQUE” (NEUBORON MEDTECH LTD., priority 2016, published 2019)

Columns and labels:
[1] = target: amyloid β-protein (Homo sapiens, UniProt P05067); assay: equilibrium dissociation constant KD with amyloid β-protein solution; format: binding; details: amyloid β-protein solution 10 μM, compound 0.1 to 10 μM, room temperature 20 min
Description: In the examples of the present disclosure, the affinity of the ^10B-containing compound and the amyloid β-protein deposition plaque is evaluated by using the equilibrium dissociation constant KD value. KD can indicate the degree of dissociation of the two substances in the equilibrium state.
The amyloid β-protein solution was prepared at a concentration of 10 μM and mixed with compound I or compound II at different concentrations (concentrations ranging from 0.1 to 10 μM). […] In addition, a known compound capable of specifically binding to amyloid β-protein was used as a control and mixed with a amyloid β-protein solution at a concentration of 10 μM and allowed to stand at room temperature for 20 min. The equilibrium dissociation constant KD was also measured and calculated.

[2] = test system: Aβ; details: phase III clinical trial, latest results; cited from earlier work
Sequence of Aβ (P05067 672-711 limits assumed): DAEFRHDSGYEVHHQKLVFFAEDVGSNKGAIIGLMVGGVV

Sequence of amyloid β-protein (P05067 672-713 limits assumed): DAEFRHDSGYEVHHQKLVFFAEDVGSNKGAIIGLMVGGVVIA

| Molecule | Kd [1] [µM] | Aβ level in cerebrospinal fluid [2] | tau protein level in cerebrospinal fluid [2] |
| --- | --- | --- | --- |
| Cc1ccc(C(=O)/C=C/c2ccc(N)cc2)o1 [control] | 1.59 |  |  |
| Gantenerumab: monoclonal antibody that binds to the N-terminal epitope of Aβ (antibody, chains of the INN, looked up, V domains shown) VH: QVELVESGGGLVQPGGSLRLSCAASGFTFSSYAMSWVRQAPGKGLEWVSAINASGTRTYYADSVKGRFTISRDNSKNTLYLQMNSLRAEDTAVYYCARGKGNTHKPYGYVRYFDVWGQGTLVTVSS VL: DIVLTQSPATLSLSPGERATLSCRASQSVSSSYLAWYQQKPGQAPRLLIYGASSRATGVPARFSGSGSGTDFTLTISSLEPEDFATYYCLQIYNMPITFGQGTKVEIK |  | does not significantly reduce | significantly reduces |
